In general, Kd refers to the concentration at which binding is half-saturated.

Assay [1] concerns the target T1, recombinant soluble human TREM2 protein (human TREM2 ECD-FlagHis) (human, UniProt Q9NZC2 19-174).
T1 sequence: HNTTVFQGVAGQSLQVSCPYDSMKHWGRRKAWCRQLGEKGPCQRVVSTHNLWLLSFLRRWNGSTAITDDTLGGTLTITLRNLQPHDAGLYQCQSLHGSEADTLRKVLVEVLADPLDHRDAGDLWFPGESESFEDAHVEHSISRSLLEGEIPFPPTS
Kind of assay: Octet BLI binning; competitor: load Ab 33B12. The procedure, abridged: (§1)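 Binding of the sandwich antibody after the load antibody places the pair in different epitope bins. Sensors carried load antibody captured via anti-human Fc, blocked with irrelevant human IgG2, then exposed to sandwich antibody at 5 μg/mL for 5 min at 25° C.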
On the technique in general: Biolayer interferometry detects binding as a change in optical thickness at a sensor tip.

Assay [2] addresses T1, recombinant soluble human TREM2 protein …. Kind of assay: Octet BLI binning; competitor: load Ab 10E3. Put shortly:
as §1

The target is the same in assay [3]. Kind of assay: Octet BLI binning; competitor: load Ab 26C10. The procedure, abridged:
as §1

Assay [4] has the same target. Kind of assay: Octet BLI binning; competitor: load Ab 4C5. On the procedure: (§2) Each of sixteen different anti-TREM2 antibodies produced from hybridomas were quantitated and loaded onto one of the anti-human Fc sensors at 5 μg/mL for 2 minutes (“Load Antibody”). The sensor was then blocked with 100 μg/mL of an irrelevant human IgG2 antibody for 5 minutes. […] Next, each of the sixteen different anti-TREM2 antibodies (“Sandwich Antibody”) was added to the sensor at 5 μg/mL and allowed to bind for 5 minutes. All assay buffers contained 10 mM Tris (pH 7.6), 0.1% Triton X-100, 150 mM NaCl, 1 mM CaCl₂, and 1 mg/mL BSA. The assay was conducted at 25° C. Experimental kinetic results were fit to a 1:1 binding model.
(§3) However, if addition of the sandwich antibody produces a binding event, then the sandwich antibody binds to a different epitope on human TREM2 than the load antibody and the two antibodies are categorized into different epitope bins.

The target in assay [5] is T2, human TREM2 on cells (human, UniProt Q9NZC2 19-230).
T2 sequence: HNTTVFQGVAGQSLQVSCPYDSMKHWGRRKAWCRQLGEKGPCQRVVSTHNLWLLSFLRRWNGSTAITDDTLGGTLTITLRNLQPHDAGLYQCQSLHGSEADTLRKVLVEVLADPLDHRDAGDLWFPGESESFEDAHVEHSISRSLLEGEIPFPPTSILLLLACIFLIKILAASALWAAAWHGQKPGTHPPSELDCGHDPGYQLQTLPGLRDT
Kind of assay: cell-based or functional assay.

The target of assay [6] is T1, recombinant soluble human TREM2 protein …. Kind of assay: Octet BLI binning; competitor: load Ab 26A10. Put shortly:
as §1

The target is the same in assay [7]. Kind of assay: Octet BLI binning; competitor: load Ab 4G10. Here is the method:
as §2, §3

Assay [8] has the same target. Kind of assay: Octet BLI binning; competitor: load Ab 24F4. The procedure, abridged: as §1
The target in assay [9] is T3, recombinant soluble cynomolgus TREM2 protein (cynomolgus TREM2 extracellular domain coupled to a Flag/His tag) (cynomolgus, UniProt A0A2K5UY34 49-204).
T3 construct: extracellular domain; also called Cyno TREM2
T3 sequence: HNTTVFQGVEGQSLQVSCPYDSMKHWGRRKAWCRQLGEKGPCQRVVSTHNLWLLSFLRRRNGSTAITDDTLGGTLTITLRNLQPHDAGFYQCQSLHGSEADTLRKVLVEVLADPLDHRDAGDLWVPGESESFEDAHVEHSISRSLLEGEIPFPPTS
Kind of assay: Octet BLI, antibody on anti-human Fc sensor, 25 C. Here is the method:
To quantitate the binding affinity of agonist antibodies for human TREM2, association and dissociation rate constants as well as the equilibrium dissociation constant were determined using anti-human Fc (Kinetic) sensors on an Octet® HTX instrument (Pall ForteBio). Agonist anti-TREM2 antibodies were made up in DMEM null media, 250 μL at 10 μg/mL. The, 250 uL of assay buffer (10 mM Tris (pH 7.6), 0.1% Triton X-100, 150 mM NaCl, 1mM CaCl₂, and 1 mg/mL BSA) was added to the antibody solutions to a final volume of 500 μL and final antibody concentration of 5 μg/mL. The anti-human Fc sensor was pre-incubated in 200 μL of the assay buffer for a minimum of 10 minutes. The sensor was then regenerated for 5 seconds in 10 mM glycine pH 1.5. Test agonist anti-TREM2 antibodies were loaded onto the sensor for 2 minutes, and baseline measurements were taken for 2 minutes. […] The recombinant TREM2 proteins were allowed to associate with the antibody-loaded sensor for 10 minutes, and then dissociation was measured for 10 minutes. The assay was conducted at 25° C. Experimental kinetic results were globally fit to a 1:1 binding model in order to determine the association and dissociation rate constants as well as the equilibrium dissociation constant.

The target of assay [10] is T2, human TREM2 on cells. Kind of assay: cell-based or functional assay. The source holds these as a separate data set.

B1: 10E3 (antibody, human IgG2, V domains shown)
VH: EVQLVQSGAEVKKPGESLMISCKGSGYSFTNYWIGWVRQMPGKGLEWMGIIYPGDSDTRYSPSFQGQVTISADKSISTAYLQWSSLKASDTAMYFCARRRQGIWGDALDIWGQGTLVTVSS
VL: EIVMTQSPATLSVSPGERATLSCRASQSVSSNLAWFQQKPGQAPRLLIYGASTRATGIPARFSVSGSGTEFTLTISSLQSEDFAFYYCLQDNNWPPTFGPGTKVDIK
notes: human IgG2 from hybridoma
In the case of B1, the sandwich binding signal in [1] is 0.303; in assay [2], -0.024; in assay [3] it was 0.348; in [4] it was 0; in [6], 0.367; in [7], -0.008. Besides, the sandwich binding signal in assay [8] was -0.002. Further, the “pSyk EC50” value with human TREM2 on cells [5] came to 0.4 nM. Moreover, the Kd in [9] came out at 11.3 nM. In addition, in the assay with human TREM2 on cells [10], the “Emax (% maximum activation compared to RnD antibody)” value was determined as 456%. In addition, in the assay with human TREM2 on cells [10], the “pSyk EC50, differentiated THP-1 cells” value was determined as 1 nM.

B2: 13E7 (antibody, human IgG2, V domains shown)
VH: EVQLVQSGAEVKKPGESLMISCKGSGYSFTSYWIGWVRQMPGKGLEWMGIIYPGDSDTRYSPSFQGQVTISADKSISTAYLQWSSLKASDTAMYFCARRRQGIWGDALDFWGQGTLVTVSS
VL: EIVMTQSPATLSVSPGERATLSCRASQSVSSNLAWFQQKPGQAPRLLIYGASTRATGIPARFSVSGSGTEFTLTISSLQSEDFAVYYCLQDNNWPPTFGPGTKVDIK
notes: human IgG2 from hybridoma
With B2, the sandwich binding signal was 0.303 in [1]; -0.019 in assay [2]; 0.369 in [3]; 0.371 in assay [6]; -0.002 in [8]. For the same molecule, the “pSyk EC50” value with human TREM2 on cells [5] was 0.4 nM. The Kd in assay [9] is 8.71 nM. Also, the “Emax (% maximum activation compared to RnD antibody)” value with human TREM2 on cells [10] is 460%. Also, the “pSyk EC50, differentiated THP-1 cells” value with human TREM2 on cells [10] stood at 0.462 nM.

B3: 5E3 (antibody, human IgG2, V domains shown)
VH: QVQLVQSGAEVKKPGASVKVSCKASGYTFTGYYIHWVRQAPGLGLEWMGWINPYSGGTTSAQKFQGRVTMTRDTSISSAYMELSRLRSDDTAVYYCARDGGYLALYGTDVWGQGTTVTVSS
VL: DIQMTQSPSSLSASVGDRVTITCRASQGISNYLAWFQQKPGKAPKSLIYAASSLQSGVPSKFSGSGSGTDFTLTISSLQPEDFATYYCQQYSTYPFTFGPGTKVDIK
notes: human IgG2 from hybridoma
In the case of B3, the sandwich binding signal in assay [1] is -0.055; in [2], 0.222; in assay [3], -0.073; in assay [6], -0.052; in assay [8], 0.434. Also, the “pSyk EC50” value with human TREM2 on cells [5] amounted to 0.24 nM. Also, in [9], the Kd is 1.6 nM. Moreover, the “Emax (% maximum activation compared to RnD antibody)” value in the assay with human TREM2 on cells [10] was found to be 195%. In the assay with human TREM2 on cells [10], the “pSyk EC50, differentiated THP-1 cells” value turned out to be 0.594 nM.

B4: 6E7 (antibody, human IgG2, V domains shown)
VH: EVQLVQSGAEVKKPGESLKISCKGSGYSFTSYWIAWVRQMPGKGLEWMGIIYPGDSDTRYSPSFQGQVTISADKSISTAYLQWSSLKASDTAMYFCARQRTFYYDSSDYFDYWGQGTLVTVSS
VL: DIQMTQSPSSVSASVGDRVTITCRASQGISSWLAWYQQKPGKAPKLLIYAASSLQNGVPSRFSGSGSGTDFTLTISSLQPEDFATYFCQQADSFPRTFGQGTKLEIK
notes: human IgG2 from hybridoma
Turning to B4, the sandwich binding signal in [1] worked out at 0.434; in [2], 0.051; in assay [3], 0.472; in assay [6], 0.475; in [8], 0.054. Also, in the assay with human TREM2 on cells [5], the “pSyk EC50” value stood at 0.29 nM. For the same molecule, in assay [9], the Kd turned out to be 2.5 nM. In addition, in the assay with human TREM2 on cells [10], the “Emax (% maximum activation compared to RnD antibody)” value is 273%. The “pSyk EC50, differentiated THP-1 cells” value in the assay with human TREM2 on cells [10] turned out to be 0.899 nM.

The values above are taken from US20220204611A1 (Amgen, published 2022).
